T1: human IL-18BP (interleukin-18 binding protein, isoform A) (human, UniProt O95998 31-194)
T1 construct: cell assays used Sino Biological 10357-H08H; PBMC assay 1 relies on endogenous IL-18BP; UniProt number is printed as 095998; also called hIL-18BP
T1 sequence: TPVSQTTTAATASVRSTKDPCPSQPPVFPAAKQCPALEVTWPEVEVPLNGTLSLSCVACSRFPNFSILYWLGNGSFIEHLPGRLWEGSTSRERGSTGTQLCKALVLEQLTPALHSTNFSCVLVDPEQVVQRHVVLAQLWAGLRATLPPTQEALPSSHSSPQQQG

T2: cynomolgus IL-18BP (cynomolgus monkey)
T2 construct: Generated in-house; also called cyIL-18BP; cyno IL-18BP
T2 chain: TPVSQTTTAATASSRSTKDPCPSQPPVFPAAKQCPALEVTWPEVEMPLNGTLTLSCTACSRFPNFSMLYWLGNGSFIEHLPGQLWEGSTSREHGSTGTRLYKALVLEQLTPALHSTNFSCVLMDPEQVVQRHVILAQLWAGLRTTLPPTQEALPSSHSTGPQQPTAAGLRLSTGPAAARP

B1: SA311a (antibody, human IgG1, V domains shown)
VH: QVQLQESGPGLVKPSQTLSLTCTVSGYSITSDYNAHWIRQPPGKGLEWIGYIHYSGQTMYNPSLKSRVTISRDTSKNQFSLKLSSVTAADTAVYYCARNYGSIYVNYFDYWGQGTLVTVSS
VL: EIVLTQSPATLSLSPGERATLSCSASSSVSYMYWYQQKPGQAPRPLIYRTSNLASGIPARFSGSGSGTDFTLTISSLEPEDFAVYYCQQYHSYPTFGGGTKVEIK
notes: humanized; human IgG1 (suffix a), kappa
B2: heavy chain library variant C34I (antibody, V domains shown)
VH: QVQLQESGPGLVKPSQTLSLTCTVSGYSITSDYNIHWIRQPPGKGLEWIGYIHYSGSTNYNPSLKSRVTISRDTSKNQFSLKLSSVTAADTAVYYCARNYGSIYVNYFDYWGQGTLVTVSS
VL: EIVLTQSPATLSLSPGERATLSCSASSSVSYMYWYQQKPGQAPRPLIYRTSNLASGIPARFSGSGSGTDFTLTISSLEPEDFAVYYCQQYHSYPTFGGGTKVEIK
B3: heavy chain library variant C34H (antibody, V domains shown)
VH: QVQLQESGPGLVKPSQTLSLTCTVSGYSITSDYNHHWIRQPPGKGLEWIGYIHYSGSTNYNPSLKSRVTISRDTSKNQFSLKLSSVTAADTAVYYCARNYGSIYVNYFDYWGQGTLVTVSS
VL: EIVLTQSPATLSLSPGERATLSCSASSSVSYMYWYQQKPGQAPRPLIYRTSNLASGIPARFSGSGSGTDFTLTISSLEPEDFAVYYCQQYHSYPTFGGGTKVEIK
B4: SA326a (antibody, human IgG1, V domains shown)
VH: QVQLQESGPGLVKPSQTLSLTCTVSGYSITSDYNAHWIRQPPGKGLEWIGYIHYSGSTNYNPSLKSRVTISRDTSKNQFSLKLSSVTAADTAVYYCARNYGSIYVNYFDYWGQGTLVTVSS
VL: EIVLTQSPATLSLSPGERATLSCSASSSVSYMYWYQQKPGQAPRPLIYRTSNLASGIPARFSGSGSGTDFTLTISSLEPEDFAVYYCQLYHSYPTFGGGTKVEIK
notes: as for B1
B5: SA325a (antibody, human IgG1, V domains shown)
VH: QVQLQESGPGLVKPSQTLSLTCTVSGYSITSDYNAHWIRQPPGKGLEWIGYIHYSGSTNYNPSLKSRVTISRDTSKNQFSLKLSSVTAADTAVYYCARNYGSIYVNYFDYWGQGTLVTVSS
VL: EIVLTQSPATLSLSPGERATLSCSASSSVSYMYWYQQKPGQAPRPLIYRTSNLASGIPARFSGSGSGTDFTLTISSLEPEDFAVYYCQEYHSYPTFGGGTKVEIK
notes: as for B1
B6: SA315a (antibody, human IgG1, V domains shown)
VH: QVQLQESGPGLVKPSQTLSLTCTVSGYSITSDYNAHWIRQPPGKGLEWIGYIHYSGQTMYNPSLKSRVTISRDTSKNQFSLKLSSVTAADTAVYYCARNFGSIYVNYFDYWGQGTLVTVSS
VL: EIVLTQSPATLSLSPGERATLSCSASSSVSYMYWYQQKPGQAPRPLIYRTSNLASGIPARFSGSGSGTDFTLTISSLEPEDFAVYYCQQYHSYPTFGGGTKVEIK
notes: as for B1
B7: SA328a (antibody, human IgG1, V domains shown)
VH: QVQLQESGPGLVKPSQTLSLTCTVSGYSITSDYNAHWIRQPPGKGLEWIGYIHYSGSTNYNPSLKSRVTISRDTSKNQFSLKLSSVTAADTAVYYCARNYGSIYVNYFDYWGQGTLVTVSS
VL: EIVLTQSPATLSLSPGERATLSCSASSSVSYMYWYQQKPGQAPRPLIYRTSNLASGIPARFSGSGSGTDFTLTISSLEPEDFAVYYCQQYHSYVTFGGGTKVEIK
notes: as for B1
B8: SA321a (antibody, human IgG1, V domains shown)
VH: QVQLQESGPGLVKPSQTLSLTCTVSGYSITQDYNAHWIRQPPGKGLEWIGYIHYSGQTLYNPSLKSRVTISRDTSKNQFSLKLSSVTAADTAVYYCARNFGSIYVNYFDYWGQGTLVTVSS
VL: EIVLTQSPATLSLSPGERATLSCSASSSVSYMYWYQQKPGQAPRPLIYRTSNLASGIPARFSGSGSGTDFTLTISSLEPEDFAVYYCQQYHSYPTFGGGTKVEIK
notes: as for B1
B9: SA319a (antibody, human IgG1, V domains shown)
VH: QVQLQESGPGLVKPSQTLSLTCTVSGYSITQDYNAHWIRQPPGKGLEWIGYIHYSGQTNYNPSLKSRVTISRDTSKNQFSLKLSSVTAADTAVYYCARNFGSIYVNYFDYWGQGTLVTVSS
VL: EIVLTQSPATLSLSPGERATLSCSASSSVSYMYWYQQKPGQAPRPLIYRTSNLASGIPARFSGSGSGTDFTLTISSLEPEDFAVYYCQQYHSYPTFGGGTKVEIK
notes: as for B1
B10: SA316a (antibody, human IgG1, V domains shown)
VH: QVQLQESGPGLVKPSQTLSLTCTVSGYSITSDYNAHWIRQPPGKGLEWIGYIHYSGSTYYNPSLKSRVTISRDTSKNQFSLKLSSVTAADTAVYYCARNYGSIYVNYFDYWGQGTLVTVSS
VL: EIVLTQSPATLSLSPGERATLSCSASSSVSYMYWYQQKPGQAPRPLIYRTSNLASGIPARFSGSGSGTDFTLTISSLEPEDFAVYYCQQYHSYPTFGGGTKVEIK
notes: as for B1
B11: SA327a (antibody, human IgG1, V domains shown)
VH: QVQLQESGPGLVKPSQTLSLTCTVSGYSITSDYNAHWIRQPPGKGLEWIGYIHYSGSTNYNPSLKSRVTISRDTSKNQFSLKLSSVTAADTAVYYCARNYGSIYVNYFDYWGQGTLVTVSS
VL: EIVLTQSPATLSLSPGERATLSCSASSSVSYMYWYQQKPGQAPRPLIYRTSNLASGIPARFSGSGSGTDFTLTISSLEPEDFAVYYCQQYHGYPTFGGGTKVEIK
notes: as for B1
B12: SA329a (antibody, human IgG1, V domains shown)
VH: QVQLQESGPGLVKPSQTLSLTCTVSGYSITSDYNAHWIRQPPGKGLEWIGYIHYSGSTNYNPSLKSRVTISRDTSKNQFSLKLSSVTAADTAVYYCARNYGSIYVNYFDYWGQGTLVTVSS
VL: EIVLTQSPATLSLSPGERATLSCSASSSVSYMYWYQQKPGQAPRPLIYRTSNLASGIPARFSGSGSGTDFTLTISSLEPEDFAVYYCQQYHSYPKFGGGTKVEIK
notes: as for B1
B13: SA313a (antibody, human IgG1, V domains shown)
VH: QVQLQESGPGLVKPSQTLSLTCTVSGYSITSDYNAHWIRQPPGKGLEWIGYIHYSGSTMYNPSLKSRVTISRDTSKNQFSLKLSSVTAADTAVYYCARNFGSIYVNYFDYWGQGTLVTVSS
VL: EIVLTQSPATLSLSPGERATLSCSASSSVSYMYWYQQKPGQAPRPLIYRTSNLASGIPARFSGSGSGTDFTLTISSLEPEDFAVYYCQQYHSYPTFGGGTKVEIK
notes: as for B1
B14: SA318a (antibody, human IgG1, V domains shown)
VH: QVQLQESGPGLVKPSQTLSLTCTVSGYSITQDYNAHWIRQPPGKGLEWIGYIHYSGQTMYNPSLKSRVTISRDTSKNQFSLKLSSVTAADTAVYYCARNFGSIYVNYFDYWGQGTLVTVSS
VL: EIVLTQSPATLSLSPGERATLSCSASSSVSYMYWYQQKPGQAPRPLIYRTSNLASGIPARFSGSGSGTDFTLTISSLEPEDFAVYYCQQYHSYPTFGGGTKVEIK
notes: as for B1
B15: SA312a (antibody, human IgG1, V domains shown)
VH: QVQLQESGPGLVKPSQTLSLTCTVSGYSITQDYNAHWIRQPPGKGLEWIGYIHYSGSTMYNPSLKSRVTISRDTSKNQFSLKLSSVTAADTAVYYCARNYGSIYVNYFDYWGQGTLVTVSS
VL: EIVLTQSPATLSLSPGERATLSCSASSSVSYMYWYQQKPGQAPRPLIYRTSNLASGIPARFSGSGSGTDFTLTISSLEPEDFAVYYCQQYHSYPTFGGGTKVEIK
notes: as for B1
B16: SA317a (antibody, human IgG1, V domains shown)
VH: QVQLQESGPGLVKPSQTLSLTCTVSGYSITSDYNAHWIRQPPGKGLEWIGYIHYSGSTLYNPSLKSRVTISRDTSKNQFSLKLSSVTAADTAVYYCARNYGSIYVNYFDYWGQGTLVTVSS
VL: EIVLTQSPATLSLSPGERATLSCSASSSVSYMYWYQQKPGQAPRPLIYRTSNLASGIPARFSGSGSGTDFTLTISSLEPEDFAVYYCQQYHSYPTFGGGTKVEIK
notes: as for B1

How the values were obtained:
[1] = target: T1, human IL-18BP (interleukin-18 binding …); assay: BLI, affinity column of Table E8
[2] = target: T1, human IL-18BP (interleukin-18 binding …); assay: cell-based or functional assay
[3] = target: T1, human IL-18BP (interleukin-18 binding …); assay: BLI (Octet), mAb on AHC biosensor
cynomolgus IL-18BP = target: T2, cynomolgus IL-18BP; assay: BLI single-concentration screen, apparent KD
[4] = target: T1, human IL-18BP (interleukin-18 binding …); assay: BLI single-concentration screen, apparent KD

Binder	Kd [1]	EC50 in PBMC Assay 1 (endogenous IL-18BP), IFNγ [2]	EC50 in PBMC Assay 2 (precomplexed IL-18BP), IFNγ [2]	Kd [3]	Kd (cynomolgus IL-18BP)	Kd [4]
B1	0.243 nM	0.6 nM	1.24 nM	0.243 nM		
B2					0.6 nM	1 nM
B3					0.2 nM	0.4 nM
B4	0.128 nM	7.5 nM	1.2 nM	0.128 nM		
B5	0.468 nM	6.1 nM	5 nM	0.468 nM		
B6	0.039 nM	0.5 nM	0.49 nM	0.039 nM		
B7	0.133 nM	2 nM	5.8 nM	0.133 nM		
B8	0.136 nM	0.9 nM	0.85 nM	0.136 nM		
B9	0.254 nM	0.2 nM	0.07 nM	0.254 nM		
B10	0.228 nM	0.6 nM	0.64 nM	0.228 nM		
B11	0.249 nM	7.1 nM	4 nM	0.249 nM		
B12	0.107 nM	5.3 nM	7.4 nM	0.107 nM		
B13	0.272 nM	1.2 nM	0.71 nM	0.272 nM		
B14	0.015 nM	0.9 nM	0.7 nM	0.015 nM		
B15	0.117 nM	2.1 nM	0.74 nM	0.117 nM		
B16	0.329 nM	0.4 nM	0.45 nM	0.329 nM		
